Reference: patent US20250163157A1 (Boehringer Ingelheim, published 2025)
Positions count from the first letter of the chain named. Names and notes keep the numbering of the source.

B1: reference antibody (full-length bivalent, monospecific, agonistic anti-CD277 antibody; heavy chain of SEQ ID NO:94, light chain of SEQ ID NO:93) (antibody, human IgG1, kappa, L234A L235A, V domains shown)
VH: QVQLQQSGAELVKPGASVKLSCKASGYTFTRYYLYWVKQRPGQGLEWIGEINPNNGGTKFNEKFKSKATLTVDKSSRTTYIQLSSLTSEDSAVYYCSREDDYDGTPDAMDYWGQGTAVTVSS
VL: DIQMNQSPSSLSASLGDTITITCHASQNINLWLSWYQQRPGNIPKLLIYRASNLHTGVPSRFSGSGSATGFTLTISSLQPEDIATYYCQQGHSYPYTFGGGTKLDIKR
notes: also called parent antibody
B2: Antibody 47 (anti-CD277; VL parent, VH CDR2 N185S, K190N) (antibody, V domains shown)
VH: B1 VH with N54S, K59N
VL: DIQMNQSPSSLSASLGDTITITCHASQNINLWLSWYQQRPGNIPKLLIYRASNLHTGVPSRFSGSGSATGFTLTISSLQPEDIATYYCQQGHSYPYTFGGGTKLDIK
notes: also called EvB#47; EvB#23
B3: Antibody 52 (anti-CD277; VL CDR1 L31V, VH CDR2 N185S, K190N) (antibody, V domains shown)
VH: B1 VH with N54S, K59N
VL: B2 VL with L31V
notes: Its constructs use human IgG1 with L234A/L235A and human kappa; also called EvB#52; EvB#29

target: T1, recombinant CD277 (human, UniProt O00481 30-254, limits assumed); assay: SPR (Biacore), recombinant CD277 amine-coupled to CM5 chip, antibody as analyte, 1:1 Langmuir fit
T1 construct: It gives no isoform (BTN3A1, A2 or A3), construct limits or supplier; also called BTN3A; Butyrophilin 3 family member BTN3A
Protocol: SPR assay was performed according to the state of the art. In short, recombinant CD277 was immobilized to the surface of a Biacore CM5 optical sensor chip by covalent EDC/NHS coupling following the Biacore amine coupling kit protocol. Antibody samples were applied as analytes in serial dilution allowing standardized comparison of all antibodies binding to the identical target molecule surface. Kinetic analysis data are based on 1:1 Langmuir curve fitting model and mean Langmuir on-rates, off-rates and KD values: see table 5.

T1 sequence (O00481 30-254 limits assumed): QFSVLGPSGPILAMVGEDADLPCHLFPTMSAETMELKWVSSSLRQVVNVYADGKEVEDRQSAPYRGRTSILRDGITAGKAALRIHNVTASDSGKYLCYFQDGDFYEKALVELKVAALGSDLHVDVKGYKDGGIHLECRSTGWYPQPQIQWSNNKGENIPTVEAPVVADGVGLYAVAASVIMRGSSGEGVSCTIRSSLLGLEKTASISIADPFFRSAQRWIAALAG

Q: For B1, which Kd is on record?
A: The Kd was 2.8 nM.

Q: B2 was tested. Which Kd did it give?
A: Its Kd is 26.3 nM.

Q: Which Kd does the source give for B3 here?
A: The Kd was 13.9 nM.
